Measured values taken from PMC13750308 (2026).

T1: Cep192 IDR+ASH8 (Homo sapiens, UniProt Q8TEP8)
T1 chain: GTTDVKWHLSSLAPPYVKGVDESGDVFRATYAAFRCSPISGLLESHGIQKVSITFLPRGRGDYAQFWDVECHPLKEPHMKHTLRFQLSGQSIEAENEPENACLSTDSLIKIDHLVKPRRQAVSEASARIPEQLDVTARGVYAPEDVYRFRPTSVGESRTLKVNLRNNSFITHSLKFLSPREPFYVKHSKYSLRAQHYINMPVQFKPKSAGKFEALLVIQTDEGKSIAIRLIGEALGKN


Tests used:
[1] = target: Centrobin peptide motif (Homo sapiens) (UniProt Q8N137); conditions: cited from earlier work
Cep192 IDR+ASH8 = target: T1, Cep192 IDR+ASH8; assay: GFP-Trap bead supernatant depletion pull-down with western blot

| Kd (Cep192 IDR+ASH8) [µM] | Molecule | Kd [1] [µM] |
| --- | --- | --- |
|  | TRIM37 MATH (from UniProt O94972) | 14 |
| 0.075 | TRIM37 (protein) MDEQSVESIAEVFRCFICMEKLRDARLCPHCSKLCCFSCIRRWLTEQRAQCPHCRAPLQLRELVNCRWAEEVTQQLDTLQLCSLTKHEENEKDKCENHHEKLSVFCWTCKKCICHQCALWGGMHGGHTFKPLAEIYEQHVTKVNEEVAKLRRRLMELISLVQEVERNVEAVRNAKDERVREIRNAVEMMIARLDTQLKNKLITLMGQKTSLTQETELLESLLQEVEHQLRSCSKSELISKSSEILMMFQQVHRKPMASFVTTPVPPDFTSELVPSYDSATFVLENFSTLRQRADPVYSPPLQVSGLCWRLKVYPDGNGVVRGYYLSVFLELSAGLPETSKYEYRVEMVHQSCNDPTKNIIREFASDFEVGECWGYNRFFRLDLLANEGYLNPQNDTVILRFQVRSPTFFQKSRDQHWYITQLEAAQTSYIQQINNLKERLTIELSRTQKSRDLSPPDNHLSPQNDDALETRAKKSACSDMLLEGGPTTASVREAKEDEEDEEKIQNEDYHHELSDGDLDLDLVYEDEVNQLDGSSSSASSTATSNTEENDIDEETMSGENDVEYNNMELEEGELMEDAAAAGPAGSSHGYVGSSSRISRRTHLCSAATSSLLDIDPLILIHLLDLKDRSSIENLWGLQPRPPASLLQPTASYSRKDKDQRKQQAMWRVPSDLKMLKRLKTQMAEVRCMKTDVKNTLSEIKSSSAASGDMQTSLFSADQAALAACGTENSGRLQDLGMELLAKSSVANCYIRNSTNKKSNSPKPARSSVAGSLSLRRAVDPGENSRSKGDCQTLSEGSPGSSQSGSRHSSPRALIHGSIGDILPKTEDRQCKALDSDAVVVAVFSGLPAVEKRRKMVTLGANAKGGHLEGLQMTDLENNSETGELQPVLPEGASAAPEEGMSSDSDIECDTENEEQEEHTSVGGFHDSFMVMTQPPDEDTHSSFPDGEQIGPEDLSFNTDENSGR |  |
